Earlier results as cited in article PMC7019049.

What was measured:
[1] = biological target: MIG6 peptide (Homo sapiens) (UniProt Q9UJM3)
pepJIP1 (Homo sapiens) = pepJIP1 (Homo sapiens) (UniProt Q9UQF2)
Sequence of UniProt Q9UQF2 (Q9UQF2 whole entry): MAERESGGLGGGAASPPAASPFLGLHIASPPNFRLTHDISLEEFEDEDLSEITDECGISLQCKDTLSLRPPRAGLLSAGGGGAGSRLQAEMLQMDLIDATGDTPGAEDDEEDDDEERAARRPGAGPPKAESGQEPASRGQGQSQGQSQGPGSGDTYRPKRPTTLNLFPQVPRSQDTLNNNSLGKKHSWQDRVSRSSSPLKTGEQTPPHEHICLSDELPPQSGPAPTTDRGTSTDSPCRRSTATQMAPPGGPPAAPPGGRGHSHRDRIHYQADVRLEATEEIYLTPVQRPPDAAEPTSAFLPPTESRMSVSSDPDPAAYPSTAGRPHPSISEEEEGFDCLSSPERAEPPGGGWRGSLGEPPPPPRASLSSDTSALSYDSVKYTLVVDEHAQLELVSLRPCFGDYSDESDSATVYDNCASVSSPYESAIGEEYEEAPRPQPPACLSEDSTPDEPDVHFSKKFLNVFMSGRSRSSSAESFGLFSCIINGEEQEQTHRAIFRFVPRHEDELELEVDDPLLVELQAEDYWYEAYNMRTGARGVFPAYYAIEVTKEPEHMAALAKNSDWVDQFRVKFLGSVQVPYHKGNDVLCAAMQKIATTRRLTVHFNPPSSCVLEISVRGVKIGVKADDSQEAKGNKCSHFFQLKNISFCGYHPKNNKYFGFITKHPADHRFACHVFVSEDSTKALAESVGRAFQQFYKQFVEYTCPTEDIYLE

Sequence of UniProt Q9UJM3 (Q9UJM3 2-462): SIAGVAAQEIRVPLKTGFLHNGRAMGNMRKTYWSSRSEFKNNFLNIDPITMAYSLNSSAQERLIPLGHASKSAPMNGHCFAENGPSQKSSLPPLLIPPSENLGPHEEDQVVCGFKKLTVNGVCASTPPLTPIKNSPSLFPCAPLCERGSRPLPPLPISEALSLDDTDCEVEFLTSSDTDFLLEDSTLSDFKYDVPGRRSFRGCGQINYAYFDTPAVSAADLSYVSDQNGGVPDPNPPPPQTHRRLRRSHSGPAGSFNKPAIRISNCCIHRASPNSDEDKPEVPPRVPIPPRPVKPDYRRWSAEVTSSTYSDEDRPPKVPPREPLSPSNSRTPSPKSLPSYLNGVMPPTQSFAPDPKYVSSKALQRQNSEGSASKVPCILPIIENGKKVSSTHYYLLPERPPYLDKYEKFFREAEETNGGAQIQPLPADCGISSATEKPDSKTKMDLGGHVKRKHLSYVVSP

**Q.** For “EGFR kinase domain (from UniProt P00533)”, which Kd [1] is on record?
**A.** 13 µM

**Q.** Which Kd (pepJIP1 (Homo sapiens)) does the source give for MAPK8 (JNK1) (from UniProt P45983) here?
**A.** 0.42 µM
